The results in this text go back to patent EP4768503A1 (Keymed Biosciences (Chengdu) Co., Ltd., dated 2026).

Assay [1] deals with T1, Aβ1-42 protofibril (human).
T1 construct: also called amyloid protofibril
As to the kind of experiment: SPR (Biacore T200), protofibril on CM5 chip, antibody as analyte. (In general: Surface plasmon resonance follows binding to a sensor surface in real time, without labels.)

In another assay the target is T2, Aβ1-42 monomer (human).
T2 construct: Preparation of the monomer is not described
T2 sequence (peptide, as listed by the source): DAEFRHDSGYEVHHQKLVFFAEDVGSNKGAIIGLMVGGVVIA
In words: graded binding, chimeric antibody (assay not named; ELISA in Example 1). (An ELISA detects its analyte on a solid surface through an enzyme-linked reagent.)

In the next assay the target is T3, pyroE Aβ3-42 peptide (human, pyroglutamate derived from glutamic acid at the third amino acid position of Aβ (N-terminus of the peptide)).
T3 construct: Synthetic peptide; It lacks the first two N-terminal residues of Aβ; also called pyroglutamate-modified β-amyloid
T3 sequence (peptide, as listed by the source): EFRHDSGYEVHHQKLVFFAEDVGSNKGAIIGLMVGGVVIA
The description is as above.

Assay [2] concerns the target T1, Aβ1-42 protofibril. The assay is described as above.
The target of assay [3] is T4, pyroE Aβ3-16-biotin polypeptide (human, also: biotin, position not given here).
T4 peptide: [pGlu]FRHDSGYEVHHQK
As to the kind of experiment: SPR (Biacore T200), biotinylated peptide on SA chip, antibody as analyte; antigen channel not given.

Where no end group is shown, it is not given here. [ ]: non-standard residue; d: D form. pGlu = O=C1CC[C@@H](C(=O)O)N1

B1: 6B5 (antibody, V domains shown)
VH: EVQLQQSGAELVKPGASVKLSCKASGYTFTTYWMHWVKQRPGQGLEWIGEIDPSDSYTNYNQKFKGKATLTVDKSSSTAYMQLSSLTSEDSAVYYCARSFHGNFFVYWGQGTLVTVSA
VL: QIVLTQSPAIMSASPGEKVTITCSASSSVSYMHWFQQKPGTSPKLWIYSTSNLASGVPARFSGSGSGTSYSLTISRMEAEDAATYYCQQRSSYPLTFGAGTKLELK
notes: Chimeric (parent) antibody; the constant region of the chimeric form is not specified
As a reminder, the Kd is the concentration at which binding is half-saturated. For orientation: koff means the first-order rate constant of dissociation. Usually kon stands for the rate constant with which the complex forms. High values mean fast association, low ones slow association. In the assay with Aβ1-42 protofibril [1], B1 displayed a Kd of 1710 pM, a koff of 0.00196 s⁻¹ and a kon of 1.15e+06 M⁻¹ s⁻¹. The binding result with Aβ1-42 monomer was “binds”. In the assay with pyroE Aβ3-42 peptide, the binding result was “binds”.

B2: 11G10 (antibody, V domains shown)
VH: EVQLQQSGAEIVKPGASVKLSCKASGYTFTSYWMHWVKQRPGQGLEWIGEIDPSDSYTNYNQKFKGKATLTVDKSSSTAYMQLRSLTSEDSAVYYCARSFHGNLFVYWGQGTLVTVSA
VL: QIVLTQSPAIMSASPGEKVTITCSASSSVSYMHWFQQKPGTSPKLWIYSTSNLATGVPARFSGSGSGTSYSLTISRMEAEDAATYYCQQRSSYPLTFGAGTKLEIK
notes: Chimeric antibody; the constant region of the chimeric form is not specified
For B2, the binding result with Aβ1-42 protofibril [2], in the assay with Aβ1-42 monomer and in the assay with pyroE Aβ3-42 peptide was “binds” each time.

B3: 6C9 (antibody, V domains shown)
VH: QVQLQQSGAELVKPGASVKLSCKASGYTFTNYYVHWVKQRPGQGLEWIGEIDPSDSYSNYNQKFKGKATLTVDKSSSTAYMQLSSLTSEDSAVYYCARSFHGNFFVYWGQGTLVTVSA
VL: QIVLTQSPAIMSASLGEEITLTCSASSSVSYMHWFQQKPGTSPKLWIYSTSNLASGVPARFSGSGSGTSYSLTISRMEAEDAATYYCQQRSSYPPTFGGGTKLEIK
notes: as for B2
For B3, the binding result with Aβ1-42 protofibril [2], with Aβ1-42 monomer and with pyroE Aβ3-42 peptide was “binds” in each case.

B4: 200O1 (antibody, V domains shown)
VH: QVQLKESGPGLVAPSQSLSITCTVSGFSLSRYIVHWYRQPPGKGLEWLGMIWGGGRIDYNSALKSRLSISKDNSKSQVFLKMNSLQTDDTAMYYCARNFGENAEAYWGQGTLVTVSA
VL: DIQMTQTTSSLSASLGDRVTITCRASQDINIYLNWYQQKPDGVVKLLIYYTSRLHSGVPSRFSGSGSGTDFSLTISNLEQEDIATYFCQQGHTLPYTFGGGTKLEIK
notes: Chimeric (parent) antibody; the constant region of the chimeric form is not specified; also called 20001
As to B4, in assay [3], the Kd amounted to 0.0716 pM, the koff was found to be 5.44e-08 s⁻¹ and the kon was determined as 760000 M⁻¹ s⁻¹. For the same molecule, the binding result with pyroE Aβ3-42 peptide is listed as “binds”.

B5: 151N5 (antibody, V domains shown)
VH: EVQLVESGGGLVKPGGSLKLSCAASGFTFSDFYMYWVRQTPEKRLEWVATISDGGRYTYYPDRLKGRFTISRNIAKNNLYLQMSSLKSEDTAMYYCARGRSTMITTTRNYFALDYWGQGTSVTVSS
VL: DIQMTQSSSSFSVSLGDRVTITCKASEDIYNRLAWYQQKPGDAPRLLISGAIRLETGVPSRFSGSGSGKDYTLSITSLQTEDGATYYCQQYWRTPLTFGAGIKLELK
notes: as for B1
In assay [3], B5 returned a Kd of 291 pM, a koff of 0.000319 s⁻¹ and a kon of 1.1e+06 M⁻¹ s⁻¹. Besides, the binding result in the assay with pyroE Aβ3-42 peptide is given as “binds”.

B6: 174J17 (antibody, V domains shown)
VH: EVQLVESGGGLVKPGGSLKLSCAASGFTLSDYYMYWVRQTPEKRLEWVATISDGGRYTYYPDSVKGRFTISRDIAKNNLYIQMSSLRSEDTAMYYCARGRSTMITTTRNYLALDYWGQGTSVTVSS
VL: DIQMTQSSSSFSVSVGDRVTVTCKASEDIYNRLAWYQQRPGNAPRLLISGATSLETGVPSRFSGSGSGKDYILSITSLQTEDVGTYYCQQYWRTPLTFGEGTKLELK
notes: as for B2
On to B6, for which, in the assay with pyroE Aβ3-42 peptide, the binding result is “binds”.
